The target in data set [1] is 6xHis-Rdh54T851AS852A-mCherry (S. cerevisiae). Kind of data set: single-molecule fluorescence intensity of clusters (TIRF, DNA curtains); Rdh54-mCherry clusters bound to dsDNA; background-subtracted cluster intensity divided by the mean intensity drop of one fluorophore; estimated molecules per cluster.
Data set [2] addresses 6xHis-Rdh54S852A-mCherry (S. cerevisiae). The data set is described as above.
The target is the same in data set [3]. Kind of data set: single-molecule fluorescence intensity of clusters (TIRF, DNA curtains); as the cluster size estimate, but 1 nM Rdh54-mCherry mixed with 0.1 or 10 nM GFP-Rad53 or 10 nM GFP-Rad53D339A before injection onto dsDNA curtains.
The target in data set [4] is 6xHis-Rdh54T851A-mCherry (S. cerevisiae). The description is as above.
The target of data set [5] is 6xHis-Rdh54-mCherry (S. cerevisiae) (UniProt P38086).
Data set [6] deals with the molecule itself. Kind of data set: single-molecule photobleaching step counting (TIRF, DNA curtains); Rdh54-mCherry bound to double-tethered lambda dsDNA; 561 nm laser unshuttered at 25% power, 200 ms integration; steps counted for smaller groups.

Several values for one entry are separate records, joined by “and”; a condition that tells them apart may be missing. Equal values may be shown once.

With “6xHis-Rdh54T851AS852A-mCherry (natural protein)”, in data set [1], the median estimated molecules per cluster (molecules per cluster) is 5.1.
For the molecule “6xHis-Rdh54S852A-mCherry (natural protein)”, in data set [2], the median estimated molecules per cluster (molecules per cluster) is 4.22. In addition, the median estimated molecules per cluster with 10 nM GFP-Rad53 (molecules per cluster) in data set [3] was 5.7.
On to “6xHis-Rdh54T851A-mCherry (natural protein)”, for which the median estimated molecules per cluster with 10 nM GFP-Rad53 (molecules per cluster) in data set [4] was 12.1.
For the molecule “6xHis-Rdh54T851A (unlabeled) (natural protein)”, the translocation rate on dsDNA of WT Rdh54 mixed with equimolar unlabeled Rdh54T851A (translocase poisoning) in data set [5] worked out at 23 bp/s.

B1: 6xHis-Rdh54-mCherry (natural protein, S. cerevisiae, UniProt P38086 35-958, looked up)
chain: MQIPKYENKPFKPPRRVGSNKYTQLKPTATAVTTAPISKAKVTVNLKRSISAGPTLNLAKKPNNLSSNENTRYFTIMYRKPTTKKHKTWSGDGYATLKASSDKLCFYNEAGKFLGSSMLPSDSDSLFETLFKAGSNEVQLDYELKENAEIRSAKEALSQNMGNPSPPTTSTTETVPSTKNDGGKYQMPLSQLFSLNTVKRFKSVTKQTNEHMTTVPKTSQNSKAKKYYPVFDVNKIDNPIVMNKNAAAEVDVIVDPLLGKFLRPHQREGVKFMYDCLMGLARPTIENPDIDCTTKSLVLENDSDISGCLLADDMGLGKTLMSITLIWTLIRQTPFASKVSCSQSGIPLTGLCKKILVVCPVTLIGNWKREFGKWLNLSRIGVLTLSSRNSPDMDKMAVRNFLKVQRTYQVLIIGYEKLLSVSEELEKNKHLIDMLVCDEGHRLKNGASKILNTLKSLDIRRKLLLTGTPIQNDLNEFFTIIDFINPGILGSFASFKRRFIIPITRARDTANRYNEELLEKGEERSKEMIEITKRFILRRTNAILEKYLPPKTDIILFCKPYSQQILAFKDILQGARLDFGQLTFSSSLGLITLLKKVCNSPGLVGSDPYYKSHIKDTQSQDSYSRSLNSGKLKVLMTLLEGIRKGTKEKVVVVSNYTQTLDIIENLMNMAGMSHCRLDGSIPAKQRDSIVTSFNRNPAIFGFLLSAKSGGVGLNLVGASRLILFDNDWNPSVDLQAMSRIHRDGQKKPCFIYRLVTTGCIDEKILQRQLMKNSLSQKFLGDSEMRNKESSNDDLFNKEDLKDLFSVHTDTKSNTHDLICSCDGLGEEIEYPETNQQQNTVELRKRSTTTWTSALDLQKKMNEAATNDDAKKSQYIRQCLVHYKHIDPARQDELFDEVITDSFTELKDSITFAFVKPGEICLREQ
notes: Rdh54, S. cerevisiae DNA translocase; Name printed as 6xHis-Rdh54-mCherry, plasmid pET15-6xHis-Rdh54; also called WT-Rdh54; WT; source: E. coli Rosetta 2 BL21 (DE3), purified (Ni-NTA, SP cation exchange, S300 SEC)
Take B1: in data set [6], the “stoichiometry N” value is 2 and 4 and 3.

The stoichiometry N is the number of molecules, sites or subunits per partner or assembly.

The record behind these values is publication PMC10681728, “Rad53 regulates the lifetime of Rdh54 at homologous recombination intermediates” (Nucleic Acids Research, 2023).
